The target of test [1] is recombinant USP7 UBL1-2 (residues 535–775) (UniProt Q93009 535-775). Kind of test: ITC. On the technique in general: ITC needs no label: the signal is the heat of the interaction.
The target of test [2] is recombinant USP7 TRAF domain (residues 62–205) (UniProt Q93009 62-205). Kind of test: ITC.
recombinant USP7 TRAF domain (residues 62–205), sequence (Q93009 62-205): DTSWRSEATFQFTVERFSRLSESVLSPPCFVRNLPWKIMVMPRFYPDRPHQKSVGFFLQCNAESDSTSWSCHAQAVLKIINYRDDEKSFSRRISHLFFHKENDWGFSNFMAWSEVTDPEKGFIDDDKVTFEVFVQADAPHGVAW

recombinant USP7 UBL1-2 (residues 535–775), sequence (Q93009 535-775): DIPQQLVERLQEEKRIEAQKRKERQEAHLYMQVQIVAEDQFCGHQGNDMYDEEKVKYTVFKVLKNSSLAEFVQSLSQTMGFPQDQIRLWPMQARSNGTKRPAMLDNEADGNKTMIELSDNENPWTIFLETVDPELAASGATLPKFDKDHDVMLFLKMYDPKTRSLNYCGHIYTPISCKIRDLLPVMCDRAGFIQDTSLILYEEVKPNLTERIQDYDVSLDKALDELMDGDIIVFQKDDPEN

Turning to SGKHSFKMKDT [Pol ι peptide 438–448], the Kd in test [1] amounted to 169 µM. Take SPCEPGTSGFN [Pol ι peptide 573–584]: the Kd in test [2] is 4.8 µM.

As a reminder, the Kd is a measure of binding affinity in units of concentration.
